Results reported in publication PMC3497011.
Each block holds one substance with its values, some of them ahead of it.

Experiments:
[1] = target: EGFR-GGS, chimeric receptor in which the JM domain is replaced by a (GGS)10 sequence; assay: flow cytometry on cells
[2] = target: EGFR-GGS tagged at the C-terminus with a fluorescent protein (EGFR-GGS-YFP and EGFR-GGS-mCherry, co-expressed); assay: FRET or BRET
[3] = target: EGFR-GGS, chimeric receptor in which the JM domain is replaced by a (GGS)10 sequence; assay: cross-linking

ratio of EGFR-GGS-bound ligand to EGFR-bound ligand [1]: 1
Substance: Alexa Fluor 488-labeled EGF (ligand)

FRET efficiency [2]: 0.25
Substance: EGFR-GGS tagged at the C-terminus with a fluorescent protein (EGFR-GGS-YFP and EGFR-GGS-mCherry, co-expressed) (receptor)

cross-linked fraction (no ligand) [3]: 0.42 | cross-linked fraction (with EGF) [3]: 0.64 | stoichiometry N [3]: 2
Substance: EGFR-GGS, chimeric receptor in which the JM domain is replaced by a (GGS)10 sequence
